Sequences and labels used below:
B1: KAP1 RING-B-box 1 (RB1; residues 50-200) (domain or fragment, human, UniProt Q13263 50-200, looked up)
chain: SPAGGGAEALELLEHCGVCRERLRPEREPRLLPCLHSACSACLGPAAPAAANSSGDGGAAGDGTVVDCPVCKQQCFSKDIVENYFMRDSGSKAATDAQDANQCCTSCEDNAPATSYCVECSEPLCETCVEAHQRVKYTKDHTVRSTGPAKS
notes: KAP1 (TRIM28), human, UniProt Q13263, residues 50-200 (RING and B-box 1); also called RING-B-box 1 fragment; RING-Box-1 fragment; not shown: His6, N-terminal, cleaved
B2: full-length KAP1 (residues 1-835) (natural protein, human, UniProt Q13263 1-835, looked up)
chain: MAASAAAASAAAASAASGSPGPGEGSAGGEKRSTAPSAAASASASAAASSPAGGGAEALELLEHCGVCRERLRPEREPRLLPCLHSACSACLGPAAPAAANSSGDGGAAGDGTVVDCPVCKQQCFSKDIVENYFMRDSGSKAATDAQDANQCCTSCEDNAPATSYCVECSEPLCETCVEAHQRVKYTKDHTVRSTGPAKSRDGERTVYCNVHKHEPLVLFCESCDTLTCRDCQLNAHKDHQYQFLEDAVRNQRKLLASLVKRLGDKHATLQKSTKEVRSSIRQVSDVQKRVQVDVKMAILQIMKELNKRGRVLVNDAQKVTEGQQERLERQHWTMTKIQKHQEHILRFASWALESDNNTALLLSKKLIYFQLHRALKMIVDPVEPHGEMKFQWDLNAWTKSAEAFGKIVAERPGTNSTGPAPMAPPRAPGPLSKQGSGSSQPMEVQEGYGFGSGDDPYSSAEPHVSGVKRSRSGEGEVSGLMRKVPRVSLERLDLDLTADSQPPVFKVFPGSTTEDYNLIVIERGAAAAATGQPGTAPAGTPGAPPLAGMAIVKEEETEAAIGAPPTATEGPETKPVLMALAEGPGAEGPRLASPSGSTSSGLEVVAPEGTSAPGGGPGTLDDSATICRVCQKPGDLVMCNQCEFCFHLDCHLPALQDVPGEEWSCSLCHVLPDLKEEDGSLSLDGADSTGVVAKLSPANQRKCERVLLALFCHEPCRPLHQLATDSTFSLDQPGGTLDLTLIRARLQEKLSPPYSSPQEFAQDVGRMFKQFNKLTEDKADVQSIIGLQRFFETRMNEAFGDTKFSAVLVEPPPMSLPGAGLSSQELSGGPGDGP
notes: KAP1 (TRIM28), human, UniProt Q13263, full length, residues 1-835; Purified as T4L-RBCC, that is without removal of the His6 tag; a TEV site (ENLYFQG) lies between tag and protein; also called TRIM28; TIF1β; source: also coexpressed with MBP-KRAB in E. coli and co-purified (StrepTrap, Superose 6 SEC); not shown: His6, N-terminal, kept
B3: KAP1 RBCC V114A/Q123A/F125A/K127A (RING domain mutant) (domain or fragment, human, UniProt Q13263 50-413, looked up)
chain: SPAGGGAEALELLEHCGVCRERLRPEREPRLLPCLHSACSACLGPAAPAAANSSGDGGAAGDGTAVDCPVCKQACASADIVENYFMRDSGSKAATDAQDANQCCTSCEDNAPATSYCVECSEPLCETCVEAHQRVKYTKDHTVRSTGPAKSRDGERTVYCNVHKHEPLVLFCESCDTLTCRDCQLNAHKDHQYQFLEDAVRNQRKLLASLVKRLGDKHATLQKSTKEVRSSIRQVSDVQKRVQVDVKMAILQIMKELNKRGRVLVNDAQKVTEGQQERLERQHWTMTKIQKHQEHILRFASWALESDNNTALLLSKKLIYFQLHRALKMIVDPVEPHGEMKFQWDLNAWTKSAEAFGKIVAERP
notes: KAP1 (TRIM28), human, UniProt Q13263, RBCC residues 50-413 with four mutations in the RING domain; also called RBCC with RING domain mutations; source: E. coli BL21 (DE3), purified; not shown: His6, N-terminal, cleaved
B4: KAP1 RBCC (residues 50-413), wild type (domain or fragment, human, UniProt Q13263 50-413, looked up)
chain: B3 chain with A65V, A74Q, A76F, A78K
notes: KAP1 (TRIM28), human, UniProt Q13263, residues 50-413 (RING, B-box 1, B-box 2, coiled coil); rows of m3 with m3 give the step in the assay's format; also called KAP1 RBCC motif; KAP1 TRIM; not shown: His6, N-terminal, cleaved
B5: KAP1 RBCC N235A/A236D/K238A/D239A/F244A/L245A (B-box 2 mutant) (domain or fragment, human, UniProt Q13263 50-413, looked up)
chain: B3 chain with A65V, A74Q, A76F, A78K, N186A, A187D, K189A, D190A, F195A, L196A
notes: KAP1 (TRIM28), human, UniProt Q13263, RBCC residues 50-413 with six mutations in and next to B-box 2; also called RBCC with the B-box 2 mutations; source: E. coli BL21 (DE3), purified; not shown: His6, N-terminal, cleaved
B6: Twin-StrepII-MBP-ZNF93 KRAB (KRAB domain residues 1-71 of ZNF93) (domain or fragment)
chain: not shown
notes: ZNF93, UniProt P35789, KRAB domain residues 1-71; The MBP tag was also required for protein solubility; also called MBP-KRAB; ZNF93 MBP-KRAB; source: E. coli BL21 (DE3), purified (StrepTrap, Superdex 200 SEC); also coexpressed with KAP1 in E. coli and co-purified; not shown: Twin-StrepII, N-terminal, kept; MBP, N-terminal, kept

Data set [1] concerns the molecule itself. The data set is described as follows: SEC-MALS; RING-B-box 1 (WT at 33 to 610 µM; B-box 1 mutant); monomer to dimer; Superdex 75 (10/300), 20 mM Hepes pH 8, 0.2 M NaCl, 0.5 mM TCEP, 293 K. (SEC sorts molecules by how far they enter the pores of the column.)
Data set [2] deals with B6. The data set is described as follows: SEC-MALS; full-length KAP1 and ZNF93 MBP-KRAB coexpressed in E. coli and co-purified (StrepTrap, SEC); Superose 6 (10/300), 20 mM Hepes pH 8, 0.5 M NaCl, 0.5 mM TCEP, 293 K; total protein 1.2 g/L. The settings on record: both partners purified.
Data set [3] deals with the molecule itself. Described as above.
Data set [4] concerns the molecule itself. The data set is described as follows: SEC-MALS; KAP1 RBCC at low protein concentration (8.7 µM, 0.35 g/L); monomers to dimer; Superdex 200 (10/300), 20 mM Hepes pH 8, 0.5 M NaCl, 0.5 mM TCEP, 293 K.
The target of data set [5] is B4. The data set is described as follows: SPR; Biacore T200, CM5 chip, MBP-KRAB immobilized (~600 RU), KAP1 RBCC flowed over (1:2 dilution series from 34 µM WT, 35 µM mutant), 20 mM Hepes pH 8.0, 0.5 M NaCl, 0.5 mM TCEP, 20 °C; biphasic kinetic model. The settings on record: both partners purified.

For orientation: stoichiometry N means a count of units in the complex or per binding partner. For orientation: Kd means the equilibrium constant for the complex coming apart. A low value points to higher affinity. The koff is the rate constant with which the complex falls apart. Read a low koff as a long-lived complex. The kon is the second-order rate constant of association.

Changes are numbered by the printed parent chain. Names and notes keep the numbering of the source.

In the case of B1, the “stoichiometry N” value in data set [1] came out at 2.
In the case of B2, the “stoichiometry N” value in data set [2] came to 2 KAP1 per KRAB. For the same molecule, the binding result in data set [3] is “binds”.
Regarding B3, the binding result in data set [4] was “binds”.
As to B4, the “stoichiometry N” value in data set [4] came to 2.
Turning to B5, the binding result in data set [4] is “binds”.
Turning to B6, in data set [5], the affinity, expressed as Kd, was 8 ± 2 nM; the koff worked out at 0.00027 s⁻¹; the on-rate constant (kon) stood at 36000 M⁻¹ s⁻¹.

(Values after PMC6660772, “Structure of KAP1 tripartite motif identifies molecular interfaces required for retroelement silencing” (Proceedings of the National Academy of Sciences of the …, 2019).)
